Measurements: IntAct's records for PubMed 26471729

B1: Antiviral innate immune response receptor RIG-I (Homo sapiens), O95786 (parent)
chain: MTTEQRRSLQAFQDYIRKTLDPTYILSYMAPWFREEEVQYIQAEKNNKGPMEAATLFLKFLLELQEEGWFRGFLDALDHAGYSGLYEAIESWDFKKIEKLEEYRLLLKRLQPEFKTRIIPTDIISDLSECLINQECEEILQICSTKGMMAGAEKLVECLLRSDKENWPKTLKLALEKERNKFSELWIVEKGIKDVETEDLEDKMETSDIQIFYQEDPECQNLSENSCPPSEVSDTNLYSPFKPRNYQLELALPAMKGKNTIICAPTGCGKTFVSLLICEHHLKKFPQGQKGKVVFFANQIPVYEQQKSVFSKYFERHGYRVTGISGATAENVPVEQIVENNDIIILTPQILVNNLKKGTIPSLSIFTLMIFDECHNTSKQHPYNMIMFNYLDQKLGGSSGPLPQVIGLTASVGVGDAKNTDEALDYICKLCASLDASVIATVKHNLEELEQVVYKPQKFFRKVESRISDKFKYIIAQLMRDTESLAKRICKDLENLSQIQNREFGTQKYEQWIVTVQKACMVFQMPDKDEESRICKALFLYTSHLRKYNDALIISEHARMKDALDYLKDFFSNVRAAGFDEIEQDLTQRFEEKLQELESVSRDPSNENPKLEDLCFILQEEYHLNPETITILFVKTRALVDALKNWIEGNPKLSFLKPGILTGRGKTNQNTGMTLPAQKCILDAFKASGDHNILIATSVADEGIDIAQCNLVILYEYVGNVIKMIQTRGRGRARGSKCFLLTSNAGVIEKEQINMYKEKMMNDSILRLQTWDEAVFREKILHIQTHEKFIRDSQEKPKPVPDKENKKLLCRKCKALACYTADVRVIEECHYTVLGDAFKECFVSRPHPKPKQFSSFEKRAKIFCARQNCSHDWGIHVKYKTFEIPVIKIESFVVEDIATGVQTLYSKWKDFHFEKIPFDPAEMSK
partner: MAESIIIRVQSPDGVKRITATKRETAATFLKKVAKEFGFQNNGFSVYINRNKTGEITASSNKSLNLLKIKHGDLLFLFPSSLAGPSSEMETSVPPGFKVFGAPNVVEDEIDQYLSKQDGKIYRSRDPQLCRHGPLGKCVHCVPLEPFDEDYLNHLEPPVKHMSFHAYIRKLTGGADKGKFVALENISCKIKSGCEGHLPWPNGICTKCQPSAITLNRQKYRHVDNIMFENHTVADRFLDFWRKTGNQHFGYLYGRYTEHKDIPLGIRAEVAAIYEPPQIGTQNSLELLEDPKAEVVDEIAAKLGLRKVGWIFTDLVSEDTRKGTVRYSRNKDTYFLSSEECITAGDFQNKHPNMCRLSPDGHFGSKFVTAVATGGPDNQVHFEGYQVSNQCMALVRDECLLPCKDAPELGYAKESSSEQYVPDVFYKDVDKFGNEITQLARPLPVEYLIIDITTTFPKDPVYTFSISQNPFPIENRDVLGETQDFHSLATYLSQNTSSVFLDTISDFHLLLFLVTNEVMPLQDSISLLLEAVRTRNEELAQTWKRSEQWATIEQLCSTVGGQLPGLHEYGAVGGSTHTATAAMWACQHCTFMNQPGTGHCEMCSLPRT

Variants of: B1
Details: with npl4_human NPLOC4, Q8TAT6

Variant | effect of a mutation on the interaction
T170E;K172R | decreasing interaction strength
K181R | with no effect
K172R | decreasing interaction strength
